Results: paper PMC3206816
Values joined by “and” are separate entries in the source; they are usually repeats but may differ in a detail not shown here. Equal entries are not always repeated.

What was measured:
[1] = biological target: full-length HIV-1 Nef (RP14) (HIV-1); test: cross-linking; purified Nef with glutaraldehyde (0.0%, 0.025%, 0.05%, 0.075%, 0.1%) on ice for 15 minutes; 12% SDS-PAGE, silver stain and western blot with anti-His antibody
[2] = biological target: full-length HIV-1 Nef (RP14) (HIV-1); test: crystal structure; hanging drop, Nef at ~3.7 mg/ml; 0.1 M Tris pH 8.5, 0.2 M ammonium sulfate, 20% PEG 8000; space group P6(3)22, two chains in the asymmetric unit, tetramer with 4-fold symmetry formed through crystal symmetry; 3.5 Å

For “full-length HIV-1 Nef (RP14) (natural protein)”, which stoichiometry N [1] is on record?
The stoichiometry N was 2 and 4.

What about the stoichiometry N [2] of the same substance?
The stoichiometry N was 4.
